Data taken from PMC2756588.

T1: Hof1, Q05080
T1 sequence (Q05080 590-669, looked up): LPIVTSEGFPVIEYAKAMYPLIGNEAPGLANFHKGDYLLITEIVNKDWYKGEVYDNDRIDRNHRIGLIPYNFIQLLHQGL

T2: Boi1, P38041
T2 sequence (P38041 1-86, looked up): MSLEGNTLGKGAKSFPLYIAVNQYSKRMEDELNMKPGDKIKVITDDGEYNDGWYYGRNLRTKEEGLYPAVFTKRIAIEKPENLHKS

T3: Bzz1-2, P38822
T3 sequence (P38822 568-633, looked up): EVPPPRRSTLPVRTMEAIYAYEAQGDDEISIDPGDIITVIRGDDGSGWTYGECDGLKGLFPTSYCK

T4: Lsb3, P43603
T4 sequence (P43603 385-451, looked up): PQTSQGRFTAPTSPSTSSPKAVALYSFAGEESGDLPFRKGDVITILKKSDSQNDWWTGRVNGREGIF

T5: Pin3, Q06449
T5 sequence (Q06449 53-122, looked up): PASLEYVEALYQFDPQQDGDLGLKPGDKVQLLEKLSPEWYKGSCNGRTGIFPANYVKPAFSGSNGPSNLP

T6: Lsb1, P53281
T6 sequence (P53281 45-122, looked up): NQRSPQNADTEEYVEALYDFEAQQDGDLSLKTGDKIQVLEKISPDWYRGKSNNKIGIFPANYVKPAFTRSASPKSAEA

T7: Bbc1, P47068
T7 sequence (P47068 1-78, looked up): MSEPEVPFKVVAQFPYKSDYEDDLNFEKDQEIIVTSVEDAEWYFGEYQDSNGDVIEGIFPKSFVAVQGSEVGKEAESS

T8: Cdc25, P04821
T8 sequence (P04821 50-136, looked up): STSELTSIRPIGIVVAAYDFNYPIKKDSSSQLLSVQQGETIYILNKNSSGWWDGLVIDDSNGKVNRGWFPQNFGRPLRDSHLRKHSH

T9: Pex13, P80667
T9 sequence (P80667 295-386, looked up): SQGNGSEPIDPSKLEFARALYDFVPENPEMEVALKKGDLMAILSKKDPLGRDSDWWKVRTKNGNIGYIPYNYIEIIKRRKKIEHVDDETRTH

T10: Boi2, P39969
T10 sequence (P39969 32-116, looked up): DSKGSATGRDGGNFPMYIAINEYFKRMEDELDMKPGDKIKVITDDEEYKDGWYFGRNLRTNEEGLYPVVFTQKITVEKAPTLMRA

T11: Hse1, P38753
T11 sequence (P38753 208-285, looked up): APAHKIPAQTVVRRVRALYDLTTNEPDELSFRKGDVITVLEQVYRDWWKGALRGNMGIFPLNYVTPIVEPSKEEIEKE

T12: Abp1, P15891
T12 sequence (P15891 535-592, looked up): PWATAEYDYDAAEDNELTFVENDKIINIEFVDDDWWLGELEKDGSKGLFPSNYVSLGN

T13: Sla1-2, P32790
T13 sequence (P32790 60-140, looked up): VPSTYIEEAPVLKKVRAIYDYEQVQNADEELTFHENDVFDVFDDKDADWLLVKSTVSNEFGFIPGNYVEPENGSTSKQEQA

T14: Bud14, P27637
T14 sequence (P27637 247-328, looked up): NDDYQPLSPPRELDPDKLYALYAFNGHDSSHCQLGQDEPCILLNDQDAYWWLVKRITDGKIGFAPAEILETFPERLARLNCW

T15: Bzz1-1, P38822
T15 sequence (P38822 478-572, looked up): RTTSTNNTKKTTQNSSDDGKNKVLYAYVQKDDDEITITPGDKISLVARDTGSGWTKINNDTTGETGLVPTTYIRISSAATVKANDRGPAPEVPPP

T16: Nbp2, Q12163
T16 sequence (Q12163 103-180, looked up): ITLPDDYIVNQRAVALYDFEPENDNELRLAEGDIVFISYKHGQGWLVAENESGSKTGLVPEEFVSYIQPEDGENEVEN

T17: Sla1-3, P32790
T17 sequence (P32790 344-424, looked up): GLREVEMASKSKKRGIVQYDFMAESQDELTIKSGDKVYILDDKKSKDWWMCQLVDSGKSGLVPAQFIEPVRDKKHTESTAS

T18: Fus1, P11710
T18 sequence (P11710 432-512, looked up): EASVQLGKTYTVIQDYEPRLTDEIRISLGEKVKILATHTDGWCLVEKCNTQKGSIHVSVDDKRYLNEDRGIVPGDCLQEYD

T19: Lsb4, P32793
T19 sequence (P32793 402-468, looked up): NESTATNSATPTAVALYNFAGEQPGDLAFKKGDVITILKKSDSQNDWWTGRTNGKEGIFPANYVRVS

T20: Myo5, Q04439
T20 sequence (Q04439 1072-1160, looked up): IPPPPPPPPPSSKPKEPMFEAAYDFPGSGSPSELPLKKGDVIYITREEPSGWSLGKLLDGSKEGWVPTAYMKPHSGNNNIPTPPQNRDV

T21: Cyk3, Q07533
T21 sequence (Q07533 1-83, looked up): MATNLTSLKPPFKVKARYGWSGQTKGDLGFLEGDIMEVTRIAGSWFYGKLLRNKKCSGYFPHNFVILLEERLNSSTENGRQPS


Tests used:
Assay in all cases: SPOT array
[1] = biological target: T1, Hof1, Q05080; conditions: median of control spots 4086
[2] = biological target: T2, Boi1, P38041; conditions: median of control spots 1162
[3] = biological target: GST; conditions: median of control spots 978
[4] = biological target: T3, Bzz1-2, P38822; conditions: median of control spots 4538
[5] = biological target: T4, Lsb3, P43603; conditions: median of control spots 406
[6] = biological target: T5, Pin3, Q06449; conditions: median of control spots 2171
[7] = biological target: T6, Lsb1, P53281; conditions: median of control spots 388
[8] = biological target: T7, Bbc1, P47068; conditions: median of control spots 796
[9] = biological target: T8, Cdc25, P04821; conditions: median of control spots 969
[10] = biological target: T9, Pex13, P80667; conditions: median of control spots 1341
[11] = biological target: T10, Boi2, P39969; conditions: median of control spots 1161
[12] = biological target: T11, Hse1, P38753; conditions: median of control spots 1727
[13] = biological target: T12, Abp1, P15891; conditions: median of control spots 935
[14] = biological target: T13, Sla1-2, P32790; conditions: median of control spots 712
[15] = biological target: Bem1-2, P29366; conditions: median of control spots 4347
Sequence of Bem1-2, P29366 (P29366 139-227): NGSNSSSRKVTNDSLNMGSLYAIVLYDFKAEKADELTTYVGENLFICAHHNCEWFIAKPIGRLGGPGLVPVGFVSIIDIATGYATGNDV

[16] = biological target: Rvs167, P39743; conditions: median of control spots 2707
Sequence of Rvs167, P39743 (P39743 419-482): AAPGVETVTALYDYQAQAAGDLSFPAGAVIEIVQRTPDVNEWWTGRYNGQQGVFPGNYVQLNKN

[17] = biological target: T14, Bud14, P27637; conditions: median of control spots 956
[18] = biological target: Sho1, P40073; conditions: median of control spots 1148
Sequence of Sho1, P40073 (P40073 287-367): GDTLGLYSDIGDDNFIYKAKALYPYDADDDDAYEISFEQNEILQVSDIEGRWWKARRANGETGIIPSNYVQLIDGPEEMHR

[19] = biological target: Bem1-1, P29366; conditions: median of control spots 4282
Sequence of Bem1-1, P29366 (P29366 55-141): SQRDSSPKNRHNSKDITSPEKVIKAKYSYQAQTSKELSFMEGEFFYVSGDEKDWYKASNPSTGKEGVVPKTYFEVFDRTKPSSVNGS

[20] = biological target: T15, Bzz1-1, P38822; conditions: median of control spots 4446
[21] = biological target: T16, Nbp2, Q12163; conditions: median of control spots 357
[22] = biological target: T17, Sla1-3, P32790; conditions: median of control spots 5475
[23] = biological target: T18, Fus1, P11710; conditions: median of control spots 1200
[24] = biological target: Myo3, P36006; conditions: median of control spots 468
[25] = biological target: T19, Lsb4, P32793; conditions: median of control spots 397
[26] = biological target: T20, Myo5, Q04439; conditions: median of control spots 471
[27] = biological target: T21, Cyk3, Q07533; conditions: median of control spots 1451

Binder | SPOT intensity [1] | SPOT intensity [2] | SPOT intensity [3] | SPOT intensity [4] | SPOT intensity [5] | SPOT intensity [6] | SPOT intensity [7] | SPOT intensity [8] | SPOT intensity [9] | SPOT intensity [10] | SPOT intensity [11] | SPOT intensity [12] | SPOT intensity [13] | SPOT intensity [14] | SPOT intensity [15] | SPOT intensity [16] | SPOT intensity [17] | SPOT intensity [18] | SPOT intensity [19] | SPOT intensity [20] | other results
SKAKRPKFLLDLQIK | 2 | 2 | 2 | 1 | 2 | 4 | 7 | 48 | 26 | 5 | 0 | 2 | 78 | 2 | 0 | 0 | 6 | 114 | 0 | 1 | SPOT intensity [21]: 0; SPOT intensity [22]: 19; SPOT intensity [23]: 3; SPOT intensity [24]: 6; SPOT intensity [25]: 5; SPOT intensity [26]: 0; SPOT intensity [27]: 4
RSKRLFPVRPMATAH | 7 | 0 | 0 | 13 | 4 | 12 | 5 | 49 | 22 | 11 | 0 | 12 | 110 | 0 | 14 | 9 | 6 | 90 | 0 | 1 | SPOT intensity [21]: 46; SPOT intensity [22]: 36; SPOT intensity [23]: 17; SPOT intensity [24]: 2; SPOT intensity [25]: 15; SPOT intensity [26]: 2; SPOT intensity [27]: 0
MKRSRPSRSIPYTTP | 0 | 3 | 0 | 29 | 1 | 34 | 0 | 25 | 9 | 10 | 2 | 14 | 32 | 6 | 39 | 6 | 7 | 54 | 0 | 1 | SPOT intensity [21]: 0; SPOT intensity [22]: 35; SPOT intensity [23]: 5; SPOT intensity [24]: 5; SPOT intensity [25]: 6; SPOT intensity [26]: 2; SPOT intensity [27]: 1
KKIRLIFTYPSTVGR | 0 | 61 | 0 | 2 | 20 | 31 | 50 | 277 | 163 | 12 | 13 | 4 | 196 | 6 | 0 | 0 | 9 | 253 | 0 | 2 | SPOT intensity [21]: 258; SPOT intensity [22]: 8; SPOT intensity [23]: 73; SPOT intensity [24]: 41; SPOT intensity [25]: 28; SPOT intensity [26]: 12; SPOT intensity [27]: 10
GQYRRTIVIPRRFFT | 8 | 30 | 5 | 0 | 16 | 18 | 19 | 258 | 156 | 20 | 6 | 11 | 184 | 8 | 17 | 0 | 13 | 124 | 0 | 3 | SPOT intensity [21]: 120; SPOT intensity [22]: 58; SPOT intensity [23]: 48; SPOT intensity [24]: 17; SPOT intensity [25]: 28; SPOT intensity [26]: 2; SPOT intensity [27]: 4
TKFRISLGLPVGAIM | 0 | 1 | 0 | 2 | 28 | 65 | 44 | 43 | 108 | 29 | 0 | 8 | 289 | 9 | 0 | 0 | 6 | 367 | 0 | 0 | SPOT intensity [21]: 159; SPOT intensity [22]: 3; SPOT intensity [23]: 32; SPOT intensity [24]: 69; SPOT intensity [25]: 46; SPOT intensity [26]: 14; SPOT intensity [27]: 0
